From patent KR20130126543A

B1: 모노 파아지 클론 B10 (scFv, V domains shown)
VH: QVQLVESGGGLVQPGGSLRLSCAASGFIFDDYAMFWVRQVPGKGLEWVAGINWNGNGIGYGDSVRGRFIISRDNARNSLDLQMNSLRAEDTAVYYCARPSLYGGNSEFDLWGQGTLVTVSS
VL: SQLVLTQPPSVSGAPGQTVTISCTGPTIGAGYDVHWYQQLPGAAPKLLIYGNLNRPSGVPDRFSGSKSGTSASLAITDLQAEDEADYYCHTYDSSLSGSWVFGGGTKLTVL
B2: 모노 파아지 클론 D2 (scFv, V domains shown)
VH: QVQLVESGAEVKKPGSSVKVSCKGSGDTFPNYAINWVRQAPGQGPEWMGRIIPMLGTSDYAEKFQGRVTITADKSTNTAYMGLNSLRSEDTAVYYCVKGPRYYGTDSYYLEKWGQGTMVTVSS
VL: B1 VL
B3: 모노 파아지 클론 F2 (scFv, V domains shown)
VH: QVQLVESGAEVKKPGASVKVSCKASGYTFTNYYMHWVRQAPGQGLEWMGIINPSGGNTGYAQKFQGRVTMTRDMSTSTAYMELSSLRSEDTAVYYCARGLPWGENGLDVWGQGTTVTVSS
VL: SQLVLTQPSSVSGAPGQTVTISCTGSSSNIGAGYDVHWYQQLPGTAPKVLIYGDSDRPSGVPDRFSGSKSATSASLAITGLQAEDEADYYCQSYDSSLSAYVFGTGTKVTVL
B4: 모노 파아지 클론 A7 (scFv, V domains shown)
VH: QMQLVESGGGLVQPGTSLRLSCAASGFKFEDYAMHWVRQAPGKGLEWVSGVSWNSGTIAYVDSVKGRFTISRDNAKNSLYLQMNSLRAEDTAVYYCARDFTYFYESSGYYAFDLWGQGTMVTVSS
VL: SQLVLTQPPSVSGAPGQRVTISCTGTNSNIGAGYDVHWYQQVPGTTPKLLIYGNTNRPSGVPDRFSGSKSGTSASLAITGLQAEDGGDYYCQSFDSSLTGSVFGTGTKVTVL

Molecular target: IL-6R-Fc 항원 (human) (UniProt P08887)
Chain of UniProt P08887 (P08887 20-365 limits assumed): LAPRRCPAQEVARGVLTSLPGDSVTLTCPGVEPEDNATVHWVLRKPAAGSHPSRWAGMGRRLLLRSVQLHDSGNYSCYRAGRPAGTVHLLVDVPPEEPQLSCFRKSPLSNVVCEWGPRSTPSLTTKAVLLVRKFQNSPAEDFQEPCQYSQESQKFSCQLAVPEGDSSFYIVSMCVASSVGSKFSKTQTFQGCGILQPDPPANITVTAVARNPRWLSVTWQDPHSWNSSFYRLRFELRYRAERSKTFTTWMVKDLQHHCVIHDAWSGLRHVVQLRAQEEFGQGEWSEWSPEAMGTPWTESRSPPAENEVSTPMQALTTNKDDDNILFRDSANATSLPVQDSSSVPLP
Experiment: mono phage ELISA; antigen coated 100 ng/well; anti-M13-HRP

OD 490 nm (IL-6R full) [OD490] | Binder
2.1 | B1
2.34 | B2
2.86 | B3
2.48 | B4

Molecular target: IL-6R-Fc 항원 (human) (UniProt P08887)
Experiment: mono phage ELISA; ratio of the IL-6R full signal to the a-myc signal

Ratio | Binder
18.6 | B1
7.71 | B2
9.96 | B3
31.1 | B4

Molecular target: Fc
Experiment: mono phage ELISA; Fc coated 100 ng/well; anti-M13-HRP

OD 490 nm (Fc) [OD490] | Binder
0.0406 | B1
0.0415 | B2
0.0405 | B3
0.0421 | B4
